Target: T1, Aβ40 (Homo sapiens, UniProt P05067)
T1 construct: Aβ40 peptide was expressed and purified as described previously; made in house; host or cells: E. coli BL21 (DE3)
Test: Chemical crosslinking (BS3) and mass spectrometry of NAC-Aβ40 complexes
Type: binding
Conditions: NAC and Aβ40 both 18 μM, 37° C. 2 h
Method: Aβ40 (18 μM) was incubated with purified NAC in a 1:1 molar ratio in Aβ aggregation buffer (20 mM sodium phosphate pH 7.5, 0.2 mM EDTA, 0.01% (w/v) NaN3) at 37° C. for 2 h. BS^3-h^12d^12 was added to the proteins at 20× molar excess and incubated for 30 min at 37° C. before quenching with 50 mM NH4HCO3. Crosslinked samples were gel-filtrated using a Superdex 75 column (GE Healthcare) and fractions containing crosslinked Aβ40-NAC complexes subjected to co-immunoprecipitation using Aβ antibody 6E10 (Biozol). Captured proteins were denatured with 1×SDS sample buffer under non-reducing conditions to avoid splitting of the antibody in heavy and light chains.
Gel pieces containing the crosslinked complexes were washed with 25 mM ammonium bicarbonate (pH 7.8) for 1 h with shaking. The solution was removed and the pieces destained three times with 25 mM ammonium bicarbonate in 60% acetonitrile. Gel pieces were dehydrated with 100% acetonitrile for 10 min and left to air-dry in a laminar flowhood for 1 h. Rehydration of the gel pieces was achieved by adding 0.1 mg/ml trypsin solution and incubating the samples on ice for 30 min. Excess trypsin was removed and the samples were incubated at 37° C. and 1000 rpm overnight. […] The extracts were pooled and concentrated using a SpeedVac before being analyzed using a nanoACQUITY LC-system coupled to a Synapt HDMS G2Si mass spectrometer. […]

B1: NAC: nascent polypeptide-associated complex, heterodimer of αNAC and βNAC; species not given at the place (C. elegans icd-1/icd-2 when overexpressed in worms) (protein)
chain 1: MTGSTETRQKEVKEPQVDVSDDSDNEAVEQELTEEQRRVAEAAGLGDHIDKQAKQSRSEKKARKLFSKLGLKQVTGVSRVCIRKSKNILFVINKPDVFKSPGSDTYIIFGEAKIEDLTQHAQMSAIENLKPTREAPQLKTVEEDENEDVEEDSTGIEEKDIELVISQANTTRNKAIRALKEADNDIVNAIMSLTM
chain 2: MMDSKAIAERIKKLQAQQEHVRIGGKGTPRRKKKVIHKTAAADDKKLQSNLKKLSVTNIPGIEEVNMIKDDGTVIHFNNPKVQTSVPANTFSVTGSADNKQITEMLPGILNQLGPESLTHLKKLANNVTKLGPDGKGEDEDVPELVGDFDAASKNETKADEQ
B1 was tested, and the “interaction with Aβ40 (crosslinking-MS)” value was “interaction of Aβ40 with the N-terminal domains of NAC”.

Reference: US12338268B2, “Compositions and methods for treating protein aggregation-associated diseases” (The Board of Trustees of the Leland Stanford Junior …, priority 2019, dated 2025)
